In patent US20110183922A1:

Molecular target: rat AChEt subunit (rat) (UniProt P37136)
Assay: cell-based or functional assay

Chain of rat AChEt subunit (rat) (P37136 32-614 limits assumed): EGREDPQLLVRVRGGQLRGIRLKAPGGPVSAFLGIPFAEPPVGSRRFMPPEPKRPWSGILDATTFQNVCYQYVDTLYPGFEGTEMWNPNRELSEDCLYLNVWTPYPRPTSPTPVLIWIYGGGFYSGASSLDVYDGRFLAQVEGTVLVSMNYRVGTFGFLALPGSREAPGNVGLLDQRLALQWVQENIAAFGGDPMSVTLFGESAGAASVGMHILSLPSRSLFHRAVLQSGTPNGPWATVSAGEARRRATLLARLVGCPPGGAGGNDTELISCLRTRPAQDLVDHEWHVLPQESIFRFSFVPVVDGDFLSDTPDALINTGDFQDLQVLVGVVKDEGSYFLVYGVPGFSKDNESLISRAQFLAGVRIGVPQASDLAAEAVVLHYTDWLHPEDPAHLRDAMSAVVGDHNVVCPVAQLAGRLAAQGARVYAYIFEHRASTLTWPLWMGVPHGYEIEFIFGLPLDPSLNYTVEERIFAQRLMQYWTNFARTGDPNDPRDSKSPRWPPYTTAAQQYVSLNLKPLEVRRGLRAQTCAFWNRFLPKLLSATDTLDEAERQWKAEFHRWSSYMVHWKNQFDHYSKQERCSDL

cell-associated AChE activity / tetramerization (velocity sedimentation, COS cells): 100 % increase
Substance: ColQ PRAD-GPI: PRAD encoding N-terminal domain of ColQ (Qn) linked to the C-terminal domain of the GPI-anchored AChE form
